# Laboratory results from publication PMC8724787 (2021).
# Legend:
# [1] = target: ZIKV-H/PF/2013 sE protein (aa 1-404) (Zika virus (strain H/PF/2013)); test: BLI
# [2] = target: DENV3 strain H87 envelope (E) protein on virions (Dengue virus 3 (strain H87)); test: ELISA; apparent
# [3] = target: ZIKV strain PF13 envelope (E) protein on virions (Zika virus (strain PF13), UniProt A0A024B7W1); test: ELISA; apparent
# [4] = target: DENV4 strain 1-0093 envelope (E) protein on virions (Dengue virus 4 (strain 1-0093)); test: ELISA; apparent
# [5] = target: DENV2 strain 16681 envelope (E) protein on virions (Dengue virus 2 (strain 16681)); test: ELISA; apparent
Binder,Kd [1],Kd [2],Kd [3],Kd [4],Kd [5]
"K^L66A C10 mAb mutant (IgG1) (antibody, V domains shown) VH: EVQLVESGAEVKKPGASVKVSCKASGYTFTSYAMHWVRQAPGQRLEWMGWINAGNGNTKYSQKFQDRVTITRDTSASTAYMELSSLRSEDTAIYYCARDKVDDYGDYWFPTLWYFDYWGQGTLVTVSS VL: QSALTQPASVSGSPGQSITISCTGTSSDVGGFNYVSWFQQHPGKAPKLMLYDVTSRPSGVSSRFSGSASGNTASLTISGLQAEDEADYYCSSHTSRGTWVFGGGTKLTVL",40.3 nM,–,–,–,–
"C10 monovalent antigen binding fragment (Fab) (Fab, V domains shown) VH: EVQLVESGAEVKKPGASVKVSCKASGYTFTSYAMHWVRQAPGQRLEWMGWINAGNGNTKYSQKFQDRVTITRDTSASTAYMELSSLRSEDTAIYYCARDKVDDYGDYWFPTLWYFDYWGQGTLVTVSS VL: QSALTQPASVSGSPGQSITISCTGTSSDVGGFNYVSWFQQHPGKAPKLMLYDVTSRPSGVSSRFSGSKSGNTASLTISGLQAEDEADYYCSSHTSRGTWVFGGGTKLTVL",–,165 nM,1.16 nM,29.2 nM,38.8 nM
"C10 intact bivalent IgG1 (human monoclonal antibody EDE1 C10) (antibody, V domains shown) VH: EVQLVESGAEVKKPGASVKVSCKASGYTFTSYAMHWVRQAPGQRLEWMGWINAGNGNTKYSQKFQDRVTITRDTSASTAYMELSSLRSEDTAIYYCARDKVDDYGDYWFPTLWYFDYWGQGTLVTVSS VL: QSALTQPASVSGSPGQSITISCTGTSSDVGGFNYVSWFQQHPGKAPKLMLYDVTSRPSGVSSRFSGSKSGNTASLTISGLQAEDEADYYCSSHTSRGTWVFGGGTKLTVL",16.2 nM,2.03 nM,0.41 nM,1.42 nM,–
